Measured values reported in patent US20250243265A1 (published 2025).
Residue numbers refer to the chain shown, from its start. Where two headings read alike, the source gives them in different places.

B1: 1D8 Fab displayed on phage (Fab, V domains shown)
VH: EVQLVESGGGLVQPGGSLRLSCAASGFTFTDYDIHWVRQAPGKGLEWVAGISPYGGYTDYADSVKGRFTISADTSKNTAYLQMNSLRAEDTAVYYCAREAGSRLLSVMDYWGQGTLVTVSS
VL: DIQMTQSPSSLSASVGDRVTITCRASQDVSTAVAWYQQKPGKAPKLLIYSASFLYSGVPSRFSGSGSGTDFTLTISSLQPEDFATYYCQQSYTTPPTFGQGTKVEIK
B2: 1D8.4F5 Fab displayed on phage (Fab, V domains shown)
VH: B1 VH with Y32D, G50E
VL: B1 VL with Y92F

What was measured:
[1] = target: T1, linear diubiquitin (Boston Biochem) (UniProt P0CG48 1-152); assay: phage competition ELISA; fit parameter m3
[2] = target: T1, linear diubiquitin (Boston Biochem); assay: phage competition ELISA; fit parameter m3; remark: listed apart in the source

Binder	IC50 [1] [µM]	IC50 [2] [µM]
B1	5.77	
B2		2.21
